Measurements published in paper PMC13379313.

How the values were obtained:
[1] = biological target: TW2 (TrpR-Geminin coiled-coil-SpyTag-Geminin coiled-coil-MetJ) (UniProt P0A881); assay: mass photometry; TW1, TW2 or assembled TW at a final concentration of 10 nM on the slide; 25 mM HEPES pH 7.4, 200 mM KCl, 5 mM MgCl2, 0.2 mM EDTA
[2] = biological target: TW1 (DtxR-Geminin coiled-coil-SpyCatcher) (UniProt P0DJL7); assay: as above

stoichiometry N [1]	Substance	stoichiometry N [2]
2	TW2 (TrpR-Geminin coiled-coil-SpyTag-Geminin coiled-coil-MetJ) (from UniProt P0A881 2-10; O75496 110-145; O75496 110-145; P0A8U6 2-105)	
	TW1 (DtxR-Geminin coiled-coil-SpyCatcher) (from UniProt P0DJL7 2-121; O75496 110-145)	2
